# Source: patent US20250186604A1 (ADC THERAPEUTICS, published 2025)
# Molecular target: T1, Human PSMA (Prostate-Specific Membrane Antigen) (human, UniProt Q04609 44-750, limits assumed)
# T1 construct: Coated on a 96 well plate at 3 ug/ml
# Experiment: ELISA, human PSMA coated on plate, anti-human-IgG-HRP detection
# Experimental: Human PSMA was coated on a 96 well plate at 3 μg/ml for at least two hours at room temperature. The plate was washed with wash buffer (0.05% Tween-20 in PBS), then blocked with blocking buffer (3% BSA in PBS) washed again using wash buffer. After which antibodies were titrated from 66.6 nM to 0.013 nM and added to the plate and incubated at room temperature for one hour, after which the plate was washed and anti-human-IgG-HRP added, the plate was incubated for a further 1 hour at room temperature, before being washed and TMB detection reagent added, the reaction was stopped by the addition of 1M HCl to the wells, after which the plate was read at 450 nm using the SpectraMax plate reader.
# T1 sequence (Q04609 44-750 limits assumed): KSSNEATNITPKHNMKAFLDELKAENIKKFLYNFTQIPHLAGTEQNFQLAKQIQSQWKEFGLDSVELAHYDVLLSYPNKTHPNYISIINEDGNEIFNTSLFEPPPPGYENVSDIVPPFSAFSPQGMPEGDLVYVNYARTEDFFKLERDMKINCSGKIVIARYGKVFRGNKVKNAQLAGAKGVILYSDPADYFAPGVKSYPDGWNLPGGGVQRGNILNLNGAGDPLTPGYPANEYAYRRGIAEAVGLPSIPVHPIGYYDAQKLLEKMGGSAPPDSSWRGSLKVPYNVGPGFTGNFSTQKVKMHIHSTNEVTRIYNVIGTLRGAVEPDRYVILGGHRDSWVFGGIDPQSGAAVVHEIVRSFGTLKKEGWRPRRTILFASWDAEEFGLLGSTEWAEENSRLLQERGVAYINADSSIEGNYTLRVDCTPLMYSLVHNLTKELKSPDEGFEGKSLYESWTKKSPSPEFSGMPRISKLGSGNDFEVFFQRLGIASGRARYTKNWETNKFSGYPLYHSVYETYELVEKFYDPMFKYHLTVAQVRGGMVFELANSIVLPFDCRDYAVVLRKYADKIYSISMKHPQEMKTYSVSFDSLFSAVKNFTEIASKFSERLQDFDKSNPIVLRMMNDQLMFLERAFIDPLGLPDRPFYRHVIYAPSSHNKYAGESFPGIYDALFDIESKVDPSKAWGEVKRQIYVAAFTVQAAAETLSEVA
row,Binder,EC50
1,"D2B (antibody, V domains shown) VH: EVKLQESGPGLVKPSQSLSLTCSVTGYSITSGYYWNWIRQFPGNKLEWMGSISFDGNNNYNPSLRNRISITRDTSKNQFFLKLNSVTTEDTATYYCAREGDYYGSSFFTYWGQGTLVTVS VL: DIVMTQSPASLSASVGETVTLTCGASENIYGALNWYQRKQGKSPQLLIYGATNLADGMSSRFSGSGSGRQYSLKISSLHPDDVATYYCQNVFRTYTFGGGTKLEIKR",0.173 nM
2,"MDX 2A10 (antibody, human IgG1, kappa, V domains shown, also called antibody 2A10) VH: EVQLVQSGAEVKKPGESLKISCKGSGYSFTSNWIGWVRQMPGKGLEWMGIIYPGDSDTRYSPSFQGQVTISADKSISTAYLQWSSLKASDTAMYYCARQTGFLWSSDLWGRGTLVTVSS VL: AIQLTQSPSSLSASVGDRVTITCRASQDISSALAWYQQKPGKAPKLLIYDASSLESGVPSRFSGYGSGTDFTLTINSLQPEDFATYYCQQFNSYPLTFGGGTKVEIKR",0.115 nM
3,"J415 (antibody, V domains shown) VH: EVKLEESGGGLVQPGGSMKLSCVASGFTFSNYWMNWVRQSPEKGLEWVAEIRSQSNNFATHYAESVKGRVIISRDDSKSSVYLQMNNLRAEDTGIYYCTRRWNNFWGQGTTLTVSS VL: NIVMTQFPKSMSISVGERVTLTCKASENVGTYVSWYQQKPEQSPKMLIYGASNRFTGVPDRFTGSGSATDFILTISSVQTEDLVDYYCGQSYTFPYTFGGGTKLEMK",24.8 nM
